Data set [1] deals with the molecule itself. Description: cell-based or functional assay.
Data set [2] concerns the molecule itself. Kind of data set: SEC; oligomeric state from elution volumes (Superdex 200 Increase 10/300 GL, HiLoad 16/600 Superdex 200) with reference to ScKEOPS (monomeric, 117.7 kDa) and standard calibration. (In gel filtration, larger molecules generally elute earlier.)
Data set [3] concerns the molecule itself. Description: cryo-EM structure; AtKEOPS mixed with tRNA^ArgCCU at 1:2; tRNA not seen; six subunits resolved (KAE1, PCC1, PCC1, KAE1, BUD32, CGI121); 3.2 Å after local refinement.

Positions count from the first letter of the chain named. Names may count otherwise.

B1: A. thaliana KEOPS variant PCC1^R73D–KAE1–BUD32–CGI121 (complex, Arabidopsis thaliana)
chain 1: MKKKMIAIGFEGSANKIGVGIVTLDGTILANPRHTYITPPGHGFLPRETAHHHLDHVLPLVKSALETSQVTPEEIDCICYTKGPGMGAPLQVSAIVVRVLSQLWKKPIVAVNHCVAHIEMGRVVTGADDPVVLYVSGGNTQVIAYSEGRYRIFGETIDIAVGNCLDRFARVLKLSNDPSPGYNIEQLAKKGENFIDLPYAVKGMDVSFSGILSYIETTAEEKLKNNECTPADLCYSLQETVFAMLVEITERAMAHCDKKDVLIVGGVGCNERLQEMMRTMCSERDGKLFATDDRYCIDNGAMIAYTGLLAFVNGIETPIEDSTFTQRFRTDEVHAVWREKEAVLLGDKKVAAN
chain 2: MDCEENVRDESLVLIKQGAEARVFESTFAGRRSIVKERFSKKYRHPILDAKLTLKRLNAEARCMTKARKLGVCTPVLYAVDTLLHSLTLEYIEGVSVKDIFLEFGTNGVVEERLDDVAAQIGAAIAKLHDGGLAHGDLTTSNMLVRSGTNQLVLIDFGLSVTSTLPEDKAVDLYVLERALLSMHSSCGNVMDRILTAYRKSSKQWSATFNKLAQVRQRGRKRTMIG
chain 3: MKVFNLDRGNTLSVSLFSGVTNSKELLNSMLDGSLKLEVSFLNASLIPDIFPLLAAAQKALISKSRDSLSTRTLHSELVYNYSGSKHITESLKRCGISENTTYILAARFNASPVEMEEVAKLINGKEIDLEELKTHANQANILKHYKITSQELGISSLGDAIVCRIAARDAL
chain 4: MAATVPATTRSDQTWDFSCNLDVSFESEEHALIAYTSLAVDKELQPDKVRRVMSVSNNKLSVHFEAIEARLLDASFSAFVDVLTLATRTIQEFGQK
As to B1, the “t^6A-catalytic activity relative to AtKEOPS dimer” value in data set [1] was roughly 25%.

B2: A. thaliana KEOPS complex (PCC1–KAE1–BUD32–CGI121) (complex, Arabidopsis thaliana)
chain 1: B1 chain 1
chain 2: B1 chain 2
chain 3: B1 chain 3
chain 4: B1 chain 4 with D73R
notes: AtKAE1, A. thaliana, as m1; AtBUD32, A. thaliana, as m2; AtCGI121, A. thaliana, as m3; AtPCC1, A. thaliana, as m4; Written as the four-subunit protomer; In solution the wild type is an eight-subunit dimer (K2B2C2P2) of this protomer, and it stood in that form in the pull-down from seedling lysate; also called AtKEOPS; KBCP; source: reconstituted from purified KAE1–PCC1 and BUD32–CGI121 (E. coli) …
A word on the stoichiometry N: it is a count of units in the complex or per binding partner. For the protein B2, the “stoichiometry N” value in data set [2] was determined as 2.

B3: Arabidopsis thaliana PCC1 (natural protein)
chain: B1 chain 4 with D73R
notes: AtPCC1, A. thaliana, from chemically synthesized DNA; Forms a homodimer in the cryo-EM structure; also called AtPCC1; AT5G53045; source: E. coli (Rosetta DE3 pLysS or BL21), co-expressed with KAE1, purified (Ni-NTA, SEC)
As to B3, the binding result in data set [3] is on record as “binds”.

B4: A. thaliana KAE1–BUD32–PCC1 subcomplex (complex, Arabidopsis thaliana)
chain 1: B1 chain 1
chain 2: B1 chain 2
chain 3: B1 chain 4 with D73R
notes: AtKAE1, A. thaliana; AtBUD32, A. thaliana; AtPCC1, A. thaliana; Written as the three-subunit unit, which by SEC forms a dimer of itself; also called KBP; AtKBP; source: recombinant, heterologous expression; copies: + +
Take B4: the “stoichiometry N” value in data set [2] is 2.

B5: A. thaliana KAE1–PCC1 subcomplex (complex, Arabidopsis thaliana)
chain 1: B1 chain 1
chain 2: B1 chain 4 with D73R
notes: AtKAE1, A. thaliana, as m1; AtPCC1, A. thaliana, as m4; Written as the KAE1–PCC1 heterodimer unit, which by SEC forms a dimer of itself; also called KP; AtKP; source: E. coli (Rosetta DE3 pLysS or BL21), co-expressed from pET26a–AtKAE1–PCC1-6His, purified (Ni-NTA, SEC)
On to B5, for which, in data set [2], the “stoichiometry N” value was determined as 2.

These data come from article PMC11077089, “Molecular basis of A. thaliana KEOPS complex in biosynthesizing tRNA t^6A” (Nucleic Acids Research, 2024).
